According to patent publication US20260241049A1, “Radiopharmaceutical Compositions Targeting Glypican-3 and Uses Thereof” (RayzeBio, Inc., priority 2023, published 2026):
Starred links: 1 amine or outer side, 2 acyl side, 3 side chain; linkers in the order of their positions; H or OH if unused. Positions of bridges follow the written chain, without caps; N, C: chain ends. Non-standard residues stand in square brackets, D forms with d. Groups on a side chain read outwards from the residue. Primed or numbered codes have the meaning given here. *: point of attachment. MeKCOpipzaa″ = (2S)-6-{[4-(carboxymethyl)piperazine-1-carbonyl]amino}-2-(methylamino)hexanoic acid, CN([C@@H](CCCCNC(=O)N1CCN(CC(=O)[*:3])CC1)C(=O)[*:2])[*:1]; DOTA‑Lu = DOTA-lutetium(175) amide on the side-chain amine, O=C([O-])CN1CCN(CC(=O)[O-])CCN(CC(=O)*)CCN(CC(=O)[O-])CC1.[175Lu+3]; MeHseMe″ = (2S)-4-methoxy-2-(methylamino)butanoic acid (N-methyl-O-methyl-L-homoserine), COCC[C@@H](C(=O)[*:2])N(C)[*:1]; F4aao = 4-(carboxymethoxy)-L-phenylalanine, O=C([C@H](Cc1ccc(OCC(=O)[*:3])cc1)N[*:1])[*:2]; F4aao(4) = 4-(carboxymethoxy)phenylalanine, O=C([C@H](Cc1ccc(OCC(=O)[*:3])cc1)N[*:1])[*:2]; MeHseMe(5) = N-methyl-O-methyl-homoserine, COCC[C@@H](C(=O)[*:2])N(C)[*:1]; MeHseMe = N-methyl-O-methyl-L-homoserine, COCC[C@@H](C(=O)[*:2])N(C)[*:1]; Thr(Me)(3) = TMe, O-methyl-L-threonine, CO[C@H](C)[C@H](N[*:1])C(=O)[*:2]; SulfoCy5 = sulfo-Cyanine5 hexanoyl dye on the side-chain amine; TMe = O-methyl-L-threonine, CO[C@H](C)[C@H](N[*:1])C(=O)[*:2]; TMe″ = O-methyl-threonine, CO[C@H](C)[C@H](N[*:1])C(=O)[*:2]; NMeAla(isoquinolin-7-yl) = CN[C@@H](Cc1ccc2ccncc2c1)C(=O)O; PEG12 = NCCOCCOCCOCCOCCOCCOCCOCCOCCOCCOCCOCCOCCC(=O)O; 3Pal(6-Ph) = N[C@@H](Cc1ccc(-c2ccccc2)nc1)C(=O)O; Biotin = O=C1N[C@H]2[C@H](CS[C@H]2CCCCC(=O)*)N1; Phe(4-COOH) = N[C@@H](Cc1ccc(C(=O)O)cc1)C(=O)O; d(tBuAla) = CC(C)(C)C[C@@H](N)C(=O)O; NMeI = CC[C@H](C)[C@H](NC)C(=O)O; NMeQ = CN[C@@H](CCC(N)=O)C(=O)O; NMeK = CN[C@@H](CCCCN)C(=O)O; NMeC = CN[C@@H](CS)C(=O)O

B1: Macrocyclic peptide of Example 2-24 (SEQ ID No. 58) (peptide)
peptide: {CH2CO}-[MeKCOpipzaa″][MeHseMe]D[NMeQ][Phe(4-COOH)][Thr(Me)(3)]IY[NMeAla(isoquinolin-7-yl)]G[3Pal(6-Ph)][NMeC]-NH2
modifications: thioether N-12
SMILES: CC[C@H](C)[C@@H]1NC(=O)[C@H]([C@@H](C)OC)NC(=O)[C@H](Cc2ccc(C(=O)O)cc2)NC(=O)[C@H](CCC(N)=O)N(C)C(=O)[C@H](CC(=O)O)NC(=O)[C@H](CCOC)N(C)C(=O)[C@H](CCCCNC(=O)N2CCN(CC(=O)O)CC2)N(C)C(=O)CSC[C@@H](C(N)=O)N(C)C(=O)[C@H](Cc2ccc(-c3ccccc3)nc2)NC(=O)CNC(=O)[C@H](Cc2ccc3ccncc3c2)N(C)C(=O)[C@H](Cc2ccc(O)cc2)NC1=O
B2: Macrocyclic peptide of Example 10-2 (SEQ ID No. 41) (peptide)
peptide: {CH2CO}-[NMeK](dF)[NMeI]D[NMeQ][Phe(4-COOH)]II[F4aao(4)][NMeAla(isoquinolin-7-yl)]G[3Pal(6-Ph)][NMeC]-NH2
modifications: thioether N-12
SMILES: CC[C@H](C)[C@@H]1NC(=O)[C@H](Cc2ccc(C(=O)O)cc2)NC(=O)[C@H](CCC(N)=O)N(C)C(=O)[C@H](CC(=O)O)NC(=O)[C@H]([C@@H](C)CC)N(C)C(=O)[C@H](CCCCNC(=O)[C@H](N)Cc2ccccc2)N(C)C(=O)CSC[C@@H](C(N)=O)N(C)C(=O)[C@H](Cc2ccc(-c3ccccc3)nc2)NC(=O)CNC(=O)[C@H](Cc2ccc3ccncc3c2)N(C)C(=O)[C@H](Cc2ccc(OCC(=O)O)cc2)NC(=O)[C@H]([C@@H](C)CC)NC1=O
B3: Macrocyclic peptide of Example 2-57 (SEQ ID No. 1) (peptide)
peptide: {CH2CO}-[NMeK][NMeI]D[NMeQ][Phe(4-COOH)]IIY[NMeAla(isoquinolin-7-yl)]G[3Pal(6-Ph)][NMeC]-NH2
modifications: thioether N-12
SMILES: CC[C@H](C)[C@@H]1NC(=O)[C@H](Cc2ccc(C(=O)O)cc2)NC(=O)[C@H](CCC(N)=O)N(C)C(=O)[C@H](CC(=O)O)NC(=O)[C@H]([C@@H](C)CC)N(C)C(=O)[C@H](CCCCN)N(C)C(=O)CSC[C@@H](C(N)=O)N(C)C(=O)[C@H](Cc2ccc(-c3ccccc3)nc2)NC(=O)CNC(=O)[C@H](Cc2ccc3ccncc3c2)N(C)C(=O)[C@H](Cc2ccc(O)cc2)NC(=O)[C@H]([C@@H](C)CC)NC1=O
B4: Macrocyclic peptide of Example 2-59 (SEQ ID No. 63) (peptide)
peptide: {CH2CO}-[NMeK][MeHseMe″]D[NMeQ][Phe(4-COOH)][TMe]I[F4aao][NMeAla(isoquinolin-7-yl)]G[3Pal(6-Ph)][NMeC]-NH2
modifications: thioether N-12
SMILES: CC[C@H](C)[C@@H]1NC(=O)[C@H]([C@@H](C)OC)NC(=O)[C@H](Cc2ccc(C(=O)O)cc2)NC(=O)[C@H](CCC(N)=O)N(C)C(=O)[C@H](CC(=O)O)NC(=O)[C@H](CCOC)N(C)C(=O)[C@H](CCCCN)N(C)C(=O)CSC[C@@H](C(N)=O)N(C)C(=O)[C@H](Cc2ccc(-c3ccccc3)nc2)NC(=O)CNC(=O)[C@H](Cc2ccc3ccncc3c2)N(C)C(=O)[C@H](Cc2ccc(OCC(=O)O)cc2)NC1=O
B5: PLB-35 (peptide)
peptide: KQDQFTIFFGXC
modifications: biotin-PEG12c conjugate of the peptide of SEQ ID No. 35 (MeK-MeQ-D-MeQ-F4COO-TMe-I-F4aao-MeNal27N-G-3Py6Ph-MeC-NH2); site of attachment shown only in a drawing; thioether ring from N-terminal acetyl to MeC12
B6: Macrocyclic peptide of Example 2-60 (SEQ ID No. 62) (peptide)
peptide: {CH2CO}-[NMeK][NMeI]D[NMeQ][Phe(4-COOH)][TMe]IY[NMeAla(isoquinolin-7-yl)]G[3Pal(6-Ph)][NMeC]-NH2
modifications: thioether N-12
SMILES: CC[C@H](C)[C@@H]1NC(=O)[C@H]([C@@H](C)OC)NC(=O)[C@H](Cc2ccc(C(=O)O)cc2)NC(=O)[C@H](CCC(N)=O)N(C)C(=O)[C@H](CC(=O)O)NC(=O)[C@H]([C@@H](C)CC)N(C)C(=O)[C@H](CCCCN)N(C)C(=O)CSC[C@@H](C(N)=O)N(C)C(=O)[C@H](Cc2ccc(-c3ccccc3)nc2)NC(=O)CNC(=O)[C@H](Cc2ccc3ccncc3c2)N(C)C(=O)[C@H](Cc2ccc(O)cc2)NC1=O
B7: Macrocyclic peptide of Example B8 (SEQ ID No. 42) (peptide)
peptide: {CH2CO}-[NMeK](d(tBuAla))[NMeI]D[NMeQ][Phe(4-COOH)]II[F4aao][NMeAla(isoquinolin-7-yl)]G[3Pal(6-Ph)][NMeC]-NH2
modifications: thioether N-12
SMILES: CC[C@H](C)[C@@H]1NC(=O)[C@H](Cc2ccc(C(=O)O)cc2)NC(=O)[C@H](CCC(N)=O)N(C)C(=O)[C@H](CC(=O)O)NC(=O)[C@H]([C@@H](C)CC)N(C)C(=O)[C@H](CCCCNC(=O)[C@H](N)CC(C)(C)C)N(C)C(=O)CSC[C@@H](C(N)=O)N(C)C(=O)[C@H](Cc2ccc(-c3ccccc3)nc2)NC(=O)CNC(=O)[C@H](Cc2ccc3ccncc3c2)N(C)C(=O)[C@H](Cc2ccc(OCC(=O)O)cc2)NC(=O)[C@H]([C@@H](C)CC)NC1=O
B8: Macrocyclic peptide of Example 2-27 (SEQ ID No. 35) (peptide)
peptide: KQDQFTIFFGXC
modifications: MeK-MeQ-D-MeQ-F4COO-TMe-I-F4aao-MeNal27N-G-3Py6Ph-MeC-NH2; thioether ring from N-terminal acetyl to MeC12
B9: Macrocyclic peptide of Example 2-4 (SEQ ID No. 7) (peptide)
peptide: {CH2CO}-[NMeK](Ac)[NMeI]D[NMeQ][Phe(4-COOH)]IIY[NMeAla(isoquinolin-7-yl)]G[3Pal(6-Ph)][NMeC]-NH2
modifications: thioether N-12
SMILES: CC[C@H](C)[C@@H]1NC(=O)[C@H](Cc2ccc(C(=O)O)cc2)NC(=O)[C@H](CCC(N)=O)N(C)C(=O)[C@H](CC(=O)O)NC(=O)[C@H]([C@@H](C)CC)N(C)C(=O)[C@H](CCCCNC(C)=O)N(C)C(=O)CSC[C@@H](C(N)=O)N(C)C(=O)[C@H](Cc2ccc(-c3ccccc3)nc2)NC(=O)CNC(=O)[C@H](Cc2ccc3ccncc3c2)N(C)C(=O)[C@H](Cc2ccc(O)cc2)NC(=O)[C@H]([C@@H](C)CC)NC1=O
B10: Macrocyclic peptide of Example B1 (SEQ ID No. 45) (peptide)
peptide: {CH2CO}-[NMeK][MeHseMe″]D[NMeQ][Phe(4-COOH)][TMe]IY[NMeAla(isoquinolin-7-yl)]G[3Pal(6-Ph)][NMeC]-NH2
modifications: thioether N-12
SMILES: CC[C@H](C)[C@@H]1NC(=O)[C@H]([C@@H](C)OC)NC(=O)[C@H](Cc2ccc(C(=O)O)cc2)NC(=O)[C@H](CCC(N)=O)N(C)C(=O)[C@H](CC(=O)O)NC(=O)[C@H](CCOC)N(C)C(=O)[C@H](CCCCN)N(C)C(=O)CSC[C@@H](C(N)=O)N(C)C(=O)[C@H](Cc2ccc(-c3ccccc3)nc2)NC(=O)CNC(=O)[C@H](Cc2ccc3ccncc3c2)N(C)C(=O)[C@H](Cc2ccc(O)cc2)NC1=O
notes: also called macrocyclic peptide 2b
B11: Macrocyclic peptide of Example 10-1 (SEQ ID No. 34) (peptide)
peptide: {CH2CO}-[NMeK](His)[NMeI]D[NMeQ][Phe(4-COOH)]II[F4aao(4)][NMeAla(isoquinolin-7-yl)]G[3Pal(6-Ph)][NMeC]-NH2
modifications: thioether N-12
SMILES: CC[C@H](C)[C@@H]1NC(=O)[C@H](Cc2ccc(C(=O)O)cc2)NC(=O)[C@H](CCC(N)=O)N(C)C(=O)[C@H](CC(=O)O)NC(=O)[C@H]([C@@H](C)CC)N(C)C(=O)[C@H](CCCCNC(=O)[C@@H](N)Cc2c[nH]cn2)N(C)C(=O)CSC[C@@H](C(N)=O)N(C)C(=O)[C@H](Cc2ccc(-c3ccccc3)nc2)NC(=O)CNC(=O)[C@H](Cc2ccc3ccncc3c2)N(C)C(=O)[C@H](Cc2ccc(OCC(=O)O)cc2)NC(=O)[C@H]([C@@H](C)CC)NC1=O

What follows are binders tested against T1, Human Glypican3-Fc (ACRO Biosystems, GP3-H5258) (human, UniProt P51654 25-559) (assay: SPR (Biacore T200), Method B-3: Glypican3-Fc captured on Protein A chip, peptide as analyte).
T1 construct: Bought fusion protein, captured in Methods B-2, B-3 and B-4; Catalogue number is printed only in Method B-2; not shown: Fc part of the bought fusion
Description: A Protein A sensor chip (Cytiva) was inserted into a Biacore T200 (Cytiva), priming was performed three times with a running buffer: HBS-P+, pH 7.4 (Cytiva), and equilibration was carried out at a flow rate of 30 μL/min. Glypican3-Fc was allowed to react for 60 seconds at a flow rate of 10 μL/min. After capturing human Glypican3-Fe, a peptide solution prepared to 10 mM in DMSO solution was diluted with a running buffer to a final concentration of 10 μM. […] Using the above samples, peptide kinetics for Glypican3 was obtained by SPR measurement. Kinetics evaluation of Glypican3 was performed by SPR measurements at a flow rate of 10 LL/min, setting the association time to 120 seconds and the disassociation time to 600 seconds.
The obtained data by Method B-1, Method B-2, Method B-3 and Method B-4 were analyzed by follow. Single Cycle Kinetics was used as the kinetics evaluation model, and curve fitting was performed using Biacore T200 Evaluation Software Version 3.0 (Cytiva).

Binder	Kd
Ac-[NMeK](DOTA‑Lu)[NMeI]D[NMeQ][Phe(4-COOH)][TMe″]IY[NMeAla(isoquinolin-7-yl)]G[3Pal(6-Ph)][NMeC]-NH2 (bridge N-12; not fully specified (bridges); also: DOTA-Lu: cold Lu-175 complex) [Lu-C-62]	0.15 nM
B1	0.5 nM
B2	0.54 nM
B3	0.17 nM
B4	1.55 nM
Ac-[NMeK](DOTA‑Lu)[NMeI]D[NMeQ][Phe(4-COOH)]II[F4aao(4)][NMeAla(isoquinolin-7-yl)]G[3Pal(6-Ph)][NMeC]-NH2 (bridge N-12; not fully specified (bridges); also: DOTA-Lu: cold Lu-175 complex) [Lu-C-64]	0.53 nM
{CH2CO}-[NMeK](SulfoCy5)[NMeI]D[NMeQ][Phe(4-COOH)][TMe]IY[NMeAla(isoquinolin-7-yl)]G[3Pal(6-Ph)][NMeC]-NH2 (thioether N-12) [Mod6]	0.24 nM
B5	3.63 nM
{CH2CO}-[NMeK](dE)[NMeI]D[NMeQ][Phe(4-COOH)]II[F4aao][NMeAla(isoquinolin-7-yl)]G[3Pal(6-Ph)][NMeC]-NH2 (thioether N-12) [Macrocyclic peptide of Example B9 (SEQ ID No. 33)]	0.52 nM
{CH2CO}-[NMeK]([PEG12-Biotin])[NMeI]D[NMeQ][Phe(4-COOH)]IIY[NMeAla(isoquinolin-7-yl)]G[3Pal(6-Ph)][NMeC]-NH2 (thioether N-12, Biotin conjugate) [PLB-1]	0.25 nM
{CH2CO}-[NMeK](SulfoCy5)[MeHseMe]D[NMeQ][Phe(4-COOH)]II[F4aao][NMeAla(isoquinolin-7-yl)]G[3Pal(6-Ph)][NMeC]-NH2 (thioether N-12) [Mod5]	3.6 nM
B6	0.23 nM
B7	0.57 nM
Ac-[NMeK](DOTA‑Lu)[MeHseMe(5)]D[NMeQ][Phe(4-COOH)]IIY[NMeAla(isoquinolin-7-yl)]G[3Pal(6-Ph)][NMeC]-NH2 (bridge N-12; not fully specified (bridges); also: cold Lu-175 chelated by DOTA) [Lu-C-72]	0.36 nM
B8	1.1 nM
B9	0.3 nM
B10	0.2 nM
B11	0.51 nM
